Results published in paper PMC4735607, “Reversal of axonal growth defects in an extraocular fibrosis model by engineering the kinesin–microtubule interface” (Nature Communications, 2016).
Where a chain is given by its changes, count along the chain named. In names and notes the source's numbering stands. Values belong to the binder of their own block, whether it stands above or below them.

Assays:
[1] = target: T1, microtubules of recombinant human TUBA1B/TUBB3 tubulin with TUBB3 R262A (human, UniProt P68363-1 1-451; Q13509-1 1-450, K40R | R262A); assay: co-sedimentation; BG-549-labelled HK349 with MTs; x2 MA buffer, 1 mg/ml casein, 40 uM taxol, 1 U/ml apyrase (nucleotide-free state); conditions: both partners purified
T1 construct: human beta3-tubulin TUBB3 with the synthetic mutation R262A; also called R262A MTs; β-R262A MT; source: HighFive insect cells (baculovirus), purified (DEAE Sepharose, TALON, anti-FLAG resin), polymerized with taxol; not shown: FLAG (DYKDDDDK)
T1 sequence (P68363 whole entry K40R, chain 1 of 2): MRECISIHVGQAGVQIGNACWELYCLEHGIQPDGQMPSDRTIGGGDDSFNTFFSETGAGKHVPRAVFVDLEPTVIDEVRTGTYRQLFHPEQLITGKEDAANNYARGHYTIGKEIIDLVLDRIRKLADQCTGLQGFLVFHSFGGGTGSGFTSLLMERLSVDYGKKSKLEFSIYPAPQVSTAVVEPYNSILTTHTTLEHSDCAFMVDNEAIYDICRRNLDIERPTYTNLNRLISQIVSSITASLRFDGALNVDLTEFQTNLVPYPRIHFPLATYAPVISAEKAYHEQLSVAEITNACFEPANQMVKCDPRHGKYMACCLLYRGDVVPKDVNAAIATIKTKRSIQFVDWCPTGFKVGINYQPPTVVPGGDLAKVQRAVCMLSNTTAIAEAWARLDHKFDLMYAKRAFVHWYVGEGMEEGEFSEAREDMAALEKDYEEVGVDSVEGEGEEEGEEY
T1 sequence (Q13509 whole entry R262A, chain 2 of 2): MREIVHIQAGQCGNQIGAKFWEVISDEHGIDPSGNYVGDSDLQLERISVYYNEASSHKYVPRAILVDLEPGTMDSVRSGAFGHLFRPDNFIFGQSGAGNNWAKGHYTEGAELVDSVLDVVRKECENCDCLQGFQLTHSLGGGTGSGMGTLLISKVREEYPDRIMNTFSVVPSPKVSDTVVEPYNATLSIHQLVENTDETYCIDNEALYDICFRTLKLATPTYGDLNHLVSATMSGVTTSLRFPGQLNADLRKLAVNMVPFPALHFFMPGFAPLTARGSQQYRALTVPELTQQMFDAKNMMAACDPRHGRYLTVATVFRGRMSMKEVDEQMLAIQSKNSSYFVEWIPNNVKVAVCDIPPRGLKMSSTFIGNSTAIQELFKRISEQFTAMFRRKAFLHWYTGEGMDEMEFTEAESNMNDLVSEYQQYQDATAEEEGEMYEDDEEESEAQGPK

[2] = target: T1, microtubules of recombinant human …; assay: co-sedimentation; BG-549-labelled HK349 with MTs; x2 MA buffer, 1 mg/ml casein, 40 uM taxol, 1 mM ADP and 1 U/ml hexokinase (ADP state); conditions: both partners purified
[3] = target: T1, microtubules of recombinant human …; assay: co-sedimentation; BG-549-labelled HK349 with MTs; x2 MA buffer, 1 mg/ml casein, 40 uM taxol, 1 mM AMPPNP and 1 U/ml apyrase (AMPPNP state); conditions: both partners purified
[4] = target: microtubules of recombinant human TUBA1B/TUBB3 tubulin with TUBB3 R262H (human) (UniProt P68363)
Chain of microtubules of recombinant human TUBA1B/TUBB3 tubulin with TUBB3 R262H (human) (P68363 whole entry K40R, chain 1 of 2): as the sequence (P68363 whole entry K40R, chain 1 of 2) above
Chain of microtubules of recombinant human TUBA1B/TUBB3 tubulin with TUBB3 R262H (human) (Q13509 whole entry R262H, chain 2 of 2, further chain): as the sequence (Q13509 whole entry R262A, chain 2 of 2) above, with A262H counted along it

[5] = target: microtubules of recombinant human TUBA1B/TUBB3 tubulin with TUBB3 R262A (human) (UniProt P68363)
Chain of microtubules of recombinant human TUBA1B/TUBB3 tubulin with TUBB3 R262A (human) (P68363 whole entry K40R, chain 1 of 2): as the sequence (P68363 whole entry K40R, chain 1 of 2) above
Chain of microtubules of recombinant human TUBA1B/TUBB3 tubulin with TUBB3 R262A (human) (Q13509 whole entry R262A, chain 2 of 2, further chain): as the sequence (Q13509 whole entry R262A, chain 2 of 2) above

[6] = target: T2, microtubules of recombinant human TUBA1B/TUBB3 tubulin, wild type (human, UniProt P68363-1 1-451; Q13509-1 1-450, K40R); assay: single-molecule motility assay (total internal reflection fluorescence microscopy); MTs immobilised on PEG-coated glass via streptavidin and biotinylated nonmotile kinesin HK340-E236A; BG-549-labelled HK432 at 0.4 nM; x2 MA buffer pH 6.8, 1 mM ATP, 1 mg/ml casein, 10 uM taxol, 25 °C; conditions: both partners purified
T2 construct: Polymer of alpha/beta heterodimers stabilised with taxol; also called WT MTs; WT MT; source: HighFive insect cells (baculovirus), purified (DEAE Sepharose, TALON, anti-FLAG resin), polymerized with taxol; not shown: FLAG (DYKDDDDK)
T2 sequence (P68363 whole entry K40R, chain 1 of 2): as the sequence (P68363 whole entry K40R, chain 1 of 2) above
T2 sequence (Q13509 whole entry, chain 2 of 2): as the sequence (Q13509 whole entry R262A, chain 2 of 2) above, with A262R counted along it

[7] = target: T1, microtubules of recombinant human …; assay: as above; conditions: both partners purified

fold increase in Kd against the WT–WT pair [1]: ~70 fold
fold increase in Kd against the WT–WT pair [2]: ~6 fold
fold increase in Kd against the WT–WT pair [3]: ~90 fold
B2: single-headed KIF5B construct HK349 (residues 1-349, SNAP tag, His6) (domain or fragment, human, UniProt P33176 1-349, looked up)
chain: MADLAECNIKVMCRFRPLNESEVNRGDKYIAKFQGEDTVVIASKPYAFDRVFQSSTSQEQVYNDCAKKIVKDVLEGYNGTIFAYGQTSSGKTHTMEGKLHDPEGMGIIPRIVQDIFNYIYSMDENLEFHIKVSYFEIYLDKIRDLLDVSKTNLSVHEDKNRVPYVKGCTERFVCSPDEVMDTIDEGKSNRHVAVTNMNEHSSRSHSIFLINVKQENTQTEQKLSGKLYLVDLAGSEKVSKTGAEGAVLDEAKNINKSLSALGNVISALAEGSTYVPYRDSKMTRILQDSLGGNCRTTIVICCSPSSYNESETKSTLLFGQRAKTIKNTVCVNVELTAEQWKKKYEKEKE
modifications: fluorescent dye BG-549 (SNAP-surface 549) on the SNAP tag
notes: kinesin-1 heavy chain KIF5B, residues 1-349; monomeric construct; also called K349-SNAP-His; minimal motor

binding result [6]: binds
binding frequency, fold of that of WT KIF5B to WT MT [7]: 2 fold
B4: D279R KIF5B, construct HK432 (residues 1-432, SNAP tag, His6) (domain or fragment, human, UniProt P33176 1-432, looked up)
chain: MADLAECNIKVMCRFRPLNESEVNRGDKYIAKFQGEDTVVIASKPYAFDRVFQSSTSQEQVYNDCAKKIVKDVLEGYNGTIFAYGQTSSGKTHTMEGKLHDPEGMGIIPRIVQDIFNYIYSMDENLEFHIKVSYFEIYLDKIRDLLDVSKTNLSVHEDKNRVPYVKGCTERFVCSPDEVMDTIDEGKSNRHVAVTNMNEHSSRSHSIFLINVKQENTQTEQKLSGKLYLVDLAGSEKVSKTGAEGAVLDEAKNINKSLSALGNVISALAEGSTYVPYRRSKMTRILQDSLGGNCRTTIVICCSPSSYNESETKSTLLFGQRAKTIKNTVCVNVELTAEQWKKKYEKEKEKNKILRNTIQWLENELNRWRNGETVPIDEQFDKEKANLEAFTVDKDITLTNDKPATAIGVIGNFTDAERRKCEEEIAKLYKQL
modifications: fluorescent dye BG-549 (SNAP-surface 549) on the SNAP tag
notes: human kinesin-1 heavy chain KIF5B, residues 1-432, D279R in the L12 loop; also called mutant HK432

binding result [6]: binds
B5: D279N KIF5B, construct HK432 (residues 1-432, SNAP tag, His6) (domain or fragment, human, UniProt P33176 1-432, looked up)
chain: B4 chain with R279N
modifications: fluorescent dye BG-549 (SNAP-surface 549) on the SNAP tag
notes: human kinesin-1 heavy chain KIF5B, residues 1-432, D279N in the L12 loop; also called mutant HK432

More lines, now with the values behind:

B1: D279R KIF5B, single-headed construct HK349 (residues 1-349, SNAP tag, His6) (domain or fragment, human, UniProt P33176 1-349, looked up)
chain: B2 chain with D279R
modifications: fluorescent dye BG-549 (SNAP-surface 549) on the SNAP tag
notes: kinesin-1 heavy chain KIF5B, residues 1-349, D279R in the L12 loop
fold increase in Kd against the WT–WT pair [1]: 10 fold
fold increase in Kd against the WT–WT pair [2]: 2 fold

B3: two-headed KIF5B motor, human KIF5B construct HK432 (residues 1-432, SNAP tag, His6) (domain or fragment, UniProt P33176 1-432, looked up)
chain: B4 chain with R279D
modifications: fluorescent dye BG-549 (SNAP-surface 549) on the SNAP tag
notes: human kinesin-1 heavy chain KIF5B, residues 1-432; also called WT KIF5B
MT-activated kinesin ATPase, apparent Michaelis–Menten constant K0.5MT as multiple of that with WT MTs [4]: 9.7 times of WT
MT-activated kinesin ATPase, kcat as percent of that with WT MTs [4]: 17 % of WT
MT-activated kinesin ATPase, apparent Michaelis–Menten constant K0.5MT as multiple of that with WT MTs [5]: 10 times of WT
MT-activated kinesin ATPase, kcat as percent of that with WT MTs [5]: 23 % of WT
binding result [6]: binds
